# Experiment: yeast display, Sf9 membrane polyspecificity reagent, FACS + sequencing; frameworks hold sequencing errors
# In short: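 Nanobodies came from a synthetic yeast display library in Saccharomyces cerevisiae BJ5465, induced with galactose for 36–48 hours and stained for 1 hour at 4 °C with 10% biotinylated, detergent-solubilized Sf9 membrane reagent. Cells were enriched on streptavidin microbeads and then FACS-sorted, with low and high (top ~1%) gates set on anti-HA fluorescence for expression and streptavidin fluorescence for reagent binding. Each polyreactivity label reflects the gate a clone came from. Genes were amplified by colony PCR, sequenced by MiSeq 2 × 250 and filtered by CDR length.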
row,Sequence,polyreactivity (PSR sort gate)
1,QVQLVESGGGLVQAGGSLRLSCAASGITFTYYAMGWYRQAPGKVRELVAGISSGTRTYYADSVKGRFTISRDNAKNTVYLQMNSLKPEDTAVYYCAARTGSRYSRGDYWGHGTQVTVSS,high polyreactivity
2,QVQLVESGGGLVQAGGSLRLSCAASGITFVDYDMGWYRQAPGKERELVAAITTGSSTYYADSVKGRFTISRDNAKNTVYLQMNSLKPEDTAVYYCARVFEYDYYQQWSYGYWGQGTQVTVSS,low polyreactivity
3,QVQLVESGGGLVQAGGSLRLSCAASGITFVFYAMGWYRQAPGKERELVAAISTGGSTNYADTVKGRFTISRDNAKNTVYFQMNSLKPEDTAVYYCAAQYFISISKYDYWGQGTQVTVSS,low polyreactivity
4,QVQLVESGGGLVQAGGSLRLSCAASGITFVGYAMGWYRQAPGKERELVAVINTSSSTYYADSVKGRFTISRDNAKNTVYLQMNSLKPVDTAVYYCADYAYYRYFIPAVLYDYWGQGTQVTVSS,low polyreactivity
5,QVQLVESGGGLVQAGGSLRLSCAASGITFVHYAMGWSRQAPGKERELVAAITVGDGGTYYADSVKGRFTISRDNAKNTVYLQMNSLKPEDTAVYYCAAGFYSYSWYVKLAYGYWGQGIQVTVSS,low polyreactivity
6,QVQLVESGGGLVQAGGSLRLSCAASGITFVKNVMGWYRQAPGKERELVAAISTIGARTYYADSVKGRFTISRDNAKNTVYLQMNSLKPEDTAVYYCAAENYPRRPRYDYWGQGTQVTVSS,high polyreactivity
7,QVQLVESGGGLVQAGGSLRLSCAASGITFVRYAMGWYRQAPGKERELVAAINFSGGNTYYADSVKGRFTISRDNAKNTVYLQMNSLKPEDTAVYYCNAKRNYVRGRQGDWYIGYGYWGQGTQVTVSS,high polyreactivity
8,QVQLVESGGGLVQAGGSLRLSCAASGITFVRYAMGWYRQAPGKERELVAAINSDGNTYYADSVKGRFTISRDTAKNTVYLQLNSLKPEDTACYYCAAGQGAGVDYWGQGTQVTVSS,high polyreactivity
9,QVQLVESGGGLVQAGGSLRLSCAASGITFVYYAMGWYRQAPGKERELVAGIDWSGGSTYYADSVKGRFTISRDNAKNTVYLQMNSLKPEDTAVYYCAAEFWLSTDFYYWGQGTQVTVSS,high polyreactivity
10,QVQLVESGGGLVQAGGSLRLSCAASGITFVYYTMGWYRQAPGKERELVASITWDGGSTYYADSVKGRFTISRDNAKNTVYLQMNSLKPEDTAVYYCNRDRVSGGKYNYWGQGTQVTVSS,low polyreactivity
11,QVQLVESGGGLVQAGGSLRLSCAASGITFWQNTMGWYRQAPGKERELVAAISWTGGRTYYADSVKGRFTISRDNAKNTVYLQMNSLKPEDTAVYYCNTGHEEDEDDYWGQGTQVTVSS,low polyreactivity
12,QVQLVESGGGLVQAGGSLRLSCAASGITFWRYALGWYRQAPGKEMELVAASRWSGSTYADSVKGRFTISRDNAKNTVYLQMNSLKPEDTAVYYCAAYPIGGYHDMDYWGQGTQVTVSS,high polyreactivity
13,QVQLVESGGGLVQAGGSLRLSCAASGITFWTYAMGWYRQAPGKERELVARISKSGARTFYADSVKGRFTLSRDNAKNTVYLQMNSLKPEDTAVYYCAADFRSNYDYWGQGTQVTVSS,high polyreactivity
14,QVQLVESGGGLVQAGGSLRLSCAASGITFWYNAMGWYRQAPGKERELVAAITRTGSTNYADSVKGRFTISRDNAKNTVYLQMNSLKPEDTAVYYCAAYLGWPWGYYSWGQGTQVTVSS,high polyreactivity
15,QVQLVESGGGLVQAGGSLRLSCAASGITFWYYAMGWYRQAPGKERELVAAITRSGRTNYADSVKGRFTISRDNAKNTVYLQMNSLKPEDTAVYYCAVYLYSFSPRYYYWGQGTQVTVSS,low polyreactivity
16,QVQLVESGGGLVQAGGSLRLSCAASGITFWYYAMGWYRQEPGKERELVAAISSSGGRTTYADSVKGRFTISRDNAKNTVYLQMNSLKPEDTAVYYCNADRRRYQHRRGSSVYLYDYWGQGTQVTVSS,high polyreactivity
17,QVQLVESGGGLVQAGGSLRLSCAASGITFYAYVMGWYRQAPGKERELVAAISGGGSTYYADSVKGRFTISRDNAKNTVYLQMNSLKPEDTAVYYCNAELSFWDLGYDYWGQGTQVTVSS,low polyreactivity
18,QVQLVESGGGLVQAGGSLRLSCAASGITFYDNAMGWYRPAPGKEWELVAGISYDGDSTYADSVKGRFTISRDNAKNTVYLQINSLKPEDTAVYYCAALGPYDWLWAGDYWGQGTQVTVSS,low polyreactivity
19,QVQLVESGGGLVQAGGSLRLSCAASGITFYDNVMGWYRQAPGKERELVAAITSGGSTNYADSVKGRFTISRDNAKNTVYFQMNRLKPEDTAVYYCAAQPRVDYEFPYRYGYWGQGTQVTVSA,low polyreactivity
20,QVQLVESGGGLVQAGGSLRLSCAASGITFYDYAMGWYRPAPGKERELVAAINSGDSTNYADSVKGRFTISRDNAKNTVYLQMNSLKPEDTAVYYCAADRYYYSWYTIWYRERIYYWGQGTQVTVSS,low polyreactivity

row,Sequence,polyreactivity (PSR sort gate)
1,QVQLVESGGGLVQAGGSLRLSCAASGITFYDYAMGWYRQAPGKERELVAAISDSGGITYYADSVKGRFTISRDNAKNTVYLQMNSLKPEDTAVYFCAAEDQLNRDYWGQGTQVTVSS,high polyreactivity
2,QVQLVESGGGLVQAGGSLRLSCAASGITFYDYAMGWYRQAPGKERELVASIDNSGGSTYYADSVKGRFTISRDNAKNTVYLQMNSLNPEDTAVYYCAAVSRYYFLGVAFLDDYWGQGTQVTVSS,high polyreactivity
3,QVQLVESGGGLVQAGGSLRLSCAASGITFYEYAMGWYRQAPGKEREFVAAIDDGDSSTYYADSVKGRFTISRDNAKNTVYLQMHSLKPEDTAVYYCNADPYYVYSLNWGDFWGQGTQVTVSS,low polyreactivity
4,QVQLVESGGGLVQAGGSLRLSCAASGITFYEYTMGWYRQAPGKERELVAVIRKTGGSTYYADSVKGRFTISRDNAKNTVYLQMNSLKPEDTAVYYCAARKRYQRGYWGQGTLVTVSS,high polyreactivity
5,QVQLVESGGGLVQAGGSLRLSCAASGITFYFNAMGWYRQAPGKERELVAAITFSGSSTYYADSVKGRFTISRDKAKNTVYLQMNSLKPEDTAVYYCAAYFTRYDFRWHTYYYWGEGTQVTVSS,low polyreactivity
6,QVQLVESGGGLVQAGGSLRLSCAASGITFYFNAMGWYRQAPGKERELVAVITSGGSTNYADSVKGRFTISRDNAKNTVYLQMNSLKPEDTAVYYCANDKSYSSWSAQYDYWGQGTHVTVSS,low polyreactivity
7,QVQLVESGGGLVQAGGSLRLSCAASGITFYFYAMGWSRQAPGKERELVSTISGGGSTSYADSVKGRFTISRDNAKNSVYLQMNSLKPEDTAVYYCAATGYSLRSGKRRPLRSGYYYWGQGTQVTVSW,high polyreactivity
8,QVQLVESGGGLVQAGGSLRLSCAASGITFYFYAMGWYRQAPGKERELVASITSSGSTDYADSVKGRFTISRDNAKNTVYLQMNSLKPEDTAVYYCAADVQNHFYSFGDERGFPFDYWGQGTQVTVSS,low polyreactivity
9,QVQLVESGGGLVQAGGSLRLSCAASGITFYGNAMGWYRQAPGTERELVAAITGGGGTNYADSVKGRFTISRDNAKNTVYLQMNSLKPEDTAVYYCNRDYFVWFQRGQYKRGSSWYDYWGQGTQVTVSS,low polyreactivity
10,QVQLVESGGGLVQAGGSLRLSCAASGITFYGYAMGWSRPAPGKERELVAVITSSGSSTYYADSVKGRFTISRDKAKNTVYVQMNSLKPEDTAVYDCNARPGRRSLRSRTYDYWGQGTQVTVSS,high polyreactivity
11,QVQLVESGGGLVQAGGSLRLSCAASGITFYGYAMGWYRQAPGKERELVAAISGNGGRTYYADSVKGRFTISRDNAKNTVYLQMNSLKPEDTAVYYCNVKVRSRRTGDRYDYWGQGTQVTVSS,high polyreactivity
12,QVQLVESGGGLVQAGGSLRLSCAASGITFYGYAMGWYRQAPGKERELVAAISKSGGSTHYADSVKGRFTISRDNAKNTVYLQMNSLKPEDTAVYYCAAAYWTRLRRMDYWGQGTQVTVSS,low polyreactivity
13,QVQLVESGGGLVQAGGSLRLSCAASGITFYGYAMGWYRQAPGKERELVARISSGGTTKYADSVKGRFTISRDNAKNTVYLQMNSLKPEDTAVYYCAVGGSWWYYGFYYWGQATQVTVSS,high polyreactivity
14,QVQLVESGGGLVQAGGSLRLSCAASGITFYGYAMGWYRQAPGKERELVARITISGRTNYADYVKGRFTISRDNAKNTVYLQMNSLKPEDTAVYYCATLVHWSYPYYYWGQGTQVTVSS,high polyreactivity
15,QVQLVESGGGLVQAGGSLRLSCAASGITFYGYAMGWYRQAPGKERELVASINSTGSTNYADSVKGRFTISRDNAKNTVYLQMNSLKPDDTAVYYCAARYRDGYRSKRKFGYWGQGTQVTVSS,high polyreactivity
16,QVQLVESGGGLVQAGGSLRLSCAASGITFYGYAMGWYRQAPGKERELVAVITSSGSSTYYADSVKGRFTISRDNAKNTVYLQMNSLTPEDTAVYYCNARPGRRSLRSRTYDYWGQGTQVTVSS,high polyreactivity
17,QVQLVESGGGLVQAGGSLRLSCAASGITFYGYTIGWYRQAPGKERELVATITRGGSTYYADSVKGRFTISLDNAKNTVYLQMNSLKPEDTAGYYCAAESQYDYGVEFDYWGQGTQVTVSS,low polyreactivity
18,QVQLVESGGGLVQAGGSLRLSCAASGITFYGYTMGWYRQAPGKERELVAAITYFGSTYYADSVKGRFTISRDNAKNTVYLQMNSLKPEDTAVYYCAAQRFRSGWFGYWGQGTQVTVSS,high polyreactivity
19,QVQLVESGGGLVQAGGSLRLSCAASGITFYHYAMGWYRQAPGKERELVAAITRSGGRTYYADSVKGRFTISRDNAKNTVFLQMNSLKPEDTAVYYCATDDRQGYFRSPREYDYWGQGTQVTVSS,high polyreactivity
20,QVQLVESGGGLVQAGGSLRLSCAASGITFYKNAMGWYRQAPGKERELVAAISSGGGTTYADSVKGRFTISRDNAKNTVYLQMNSLKPEDTAVYYCAADRRYYWYNYWGLGTQVTVSS,high polyreactivity

# Source: the nanobody polyreactivity screen of Harvey et al. (2022)
